Data taken from patent US20260274966A1.

Target: CD137 on activated CEMT cells (UniProt Q07011)
Experiment: Flow cytometry on PMA/ionomycin-activated CEMT cells, protein at 0.48 nM, detection anti-human Fc-FITC; lower panel 'Cell binding - CD137'

- MFI: 1.07
Substance: CET (antibody)
